Assay results: patent US10919943B2, “Mutant proteins enabling agrochemical control of plant gene expression” (The Regents of the University of California, priority 2016, dated 2021)
Substitutions are numbered along the chain they refer to. Numbers in names are those of the source.

B1: W385E: HAB1 mutant (protein, UniProt Q9CAJ0 23-511, looked up, variant W385E)
Protein phosphatase 2C 16: SPVEITQLKNVTDAADLLSDSENQSFCNGGTECTMEDVSELEEVGEQDLLKTLSDTRSGSSNVFDEDDVLSVVEDNSAVISEGLLVVDAGSELSLSNTAMEIDNGRVLATAIIVGESSIEQVPTAEVLIAGVNQDTNTSEVVIRLPDENSNHLVKGRSVYELDCIPLWGTVSIQGNRSEMEDAFAVSPHFLKLPIKMLMGDHEGMSPSLTHLTGHFFGVYDGHGGHKVADYCRDRLHFALAEEIERIKDELCKRNTGEGRQVQWDKVFTSCFLTVDGEIEGKIGRAVVGSSDKVLEAVASETVGSTAVVALVCSSHIVVSNCGDSRAVLFRGKEAMPLSVDHKPDREDEYARIENAGGKVIQEQGARVFGVLAMSRSIGDRYLKPYVIPEPEVTFMPRSREDECLILASDGLWDVMNNQEVCEIARRRILMWHKKNGAPPLAERGKGIDPACQAAADYLSMLALQKGSKDNISIIVIDLKAQRKFKTRT
B2: W385I: HAB1 mutant (protein, UniProt Q9CAJ0 23-511, looked up, variant W385I)
Protein phosphatase 2C 16: B1 Protein phosphatase 2C 16 with E363I
B3: G392A: HAB1 mutant (protein, UniProt Q9CAJ0 23-511, looked up, variant G392A)
Protein phosphatase 2C 16: B1 Protein phosphatase 2C 16 with E363W, G370A
B4: R389A: HAB1 mutant (protein, UniProt Q9CAJ0 23-511, looked up, variant R389A)
Protein phosphatase 2C 16: B1 Protein phosphatase 2C 16 with E363W, R367A
B5: R389C: HAB1 mutant (protein, UniProt Q9CAJ0 23-511, looked up, variant R389C)
Protein phosphatase 2C 16: B1 Protein phosphatase 2C 16 with E363W, R367C
B6: G392R: HAB1 mutant (protein, UniProt Q9CAJ0 23-511, looked up, variant G392R)
Protein phosphatase 2C 16: B1 Protein phosphatase 2C 16 with E363W, G370R
B7: R389E: HAB1 mutant (protein, UniProt Q9CAJ0 23-511, looked up, variant R389E)
Protein phosphatase 2C 16: B1 Protein phosphatase 2C 16 with E363W, R367E
B8: R389P: HAB1 mutant (protein, UniProt Q9CAJ0 23-511, looked up, variant R389P)
Protein phosphatase 2C 16: B1 Protein phosphatase 2C 16 with E363W, R367P
B9: G392T: HAB1 mutant (protein, UniProt Q9CAJ0 23-511, looked up, variant G392T)
Protein phosphatase 2C 16: B1 Protein phosphatase 2C 16 with E363W, G370T
B10: G392Q: HAB1 mutant (protein, UniProt Q9CAJ0 23-511, looked up, variant G392Q)
Protein phosphatase 2C 16: B1 Protein phosphatase 2C 16 with E363W, G370Q
B11: R389H: HAB1 mutant (protein, UniProt Q9CAJ0 23-511, looked up, variant R389H)
Protein phosphatase 2C 16: B1 Protein phosphatase 2C 16 with E363W, R367H
B12: W385G: HAB1 mutant (protein, UniProt Q9CAJ0 23-511, looked up, variant W385G)
Protein phosphatase 2C 16: B1 Protein phosphatase 2C 16 with E363G
B13: R389L: HAB1 mutant (protein, UniProt Q9CAJ0 23-511, looked up, variant R389L)
Protein phosphatase 2C 16: B1 Protein phosphatase 2C 16 with E363W, R367L
B14: R389G: HAB1 mutant (protein, UniProt Q9CAJ0 23-511, looked up, variant R389G)
Protein phosphatase 2C 16: B1 Protein phosphatase 2C 16 with E363W, R367G
B15: G392L: HAB1 mutant (protein, UniProt Q9CAJ0 23-511, looked up, variant G392L)
Protein phosphatase 2C 16: B1 Protein phosphatase 2C 16 with E363W, G370L
B16: W385H: HAB1 mutant (protein, UniProt Q9CAJ0 23-511, looked up, variant W385H)
Protein phosphatase 2C 16: B1 Protein phosphatase 2C 16 with E363H
B17: R389Y: HAB1 mutant (protein, UniProt Q9CAJ0 23-511, looked up, variant R389Y)
Protein phosphatase 2C 16: B1 Protein phosphatase 2C 16 with E363W, R367Y
B18: R389M: HAB1 mutant (protein, UniProt Q9CAJ0 23-511, looked up, variant R389M)
Protein phosphatase 2C 16: B1 Protein phosphatase 2C 16 with E363W, R367M
B19: W385F: HAB1 mutant (protein, UniProt Q9CAJ0 23-511, looked up, variant W385F)
Protein phosphatase 2C 16: B1 Protein phosphatase 2C 16 with E363F
B20: G392M: HAB1 mutant (protein, UniProt Q9CAJ0 23-511, looked up, variant G392M)
Protein phosphatase 2C 16: B1 Protein phosphatase 2C 16 with E363W, G370M
B21: F391D: HAB1 mutant (protein, UniProt Q9CAJ0 23-511, looked up, variant F391D)
Protein phosphatase 2C 16: B1 Protein phosphatase 2C 16 with E363W, F369D
B22: R389F: HAB1 mutant (protein, UniProt Q9CAJ0 23-511, looked up, variant R389F)
Protein phosphatase 2C 16: B1 Protein phosphatase 2C 16 with E363W, R367F
B23: F391P: HAB1 mutant (protein, UniProt Q9CAJ0 23-511, looked up, variant F391P)
Protein phosphatase 2C 16: B1 Protein phosphatase 2C 16 with E363W, F369P
B24: R389R: HAB1, x printed at the wild-type residue; see doubts (protein, UniProt Q9CAJ0 23-511, looked up)
Protein phosphatase 2C 16: B1 Protein phosphatase 2C 16 with E363W
B25: R389Q: HAB1 mutant (protein, UniProt Q9CAJ0 23-511, looked up, variant R389Q)
Protein phosphatase 2C 16: B1 Protein phosphatase 2C 16 with E363W, R367Q
B26: R389T: HAB1 mutant (protein, UniProt Q9CAJ0 23-511, looked up, variant R389T)
Protein phosphatase 2C 16: B1 Protein phosphatase 2C 16 with E363W, R367T
B27: R389I: HAB1 mutant (protein, UniProt Q9CAJ0 23-511, looked up, variant R389I)
Protein phosphatase 2C 16: B1 Protein phosphatase 2C 16 with E363W, R367I
B28: W385K: HAB1 mutant (protein, UniProt Q9CAJ0 23-511, looked up, variant W385K)
Protein phosphatase 2C 16: B1 Protein phosphatase 2C 16 with E363K
B29: R389K: HAB1 mutant (protein, UniProt Q9CAJ0 23-511, looked up, variant R389K)
Protein phosphatase 2C 16: B1 Protein phosphatase 2C 16 with E363W, R367K
B30: R389D: HAB1 mutant (protein, UniProt Q9CAJ0 23-511, looked up, variant R389D)
Protein phosphatase 2C 16: B1 Protein phosphatase 2C 16 with E363W, R367D
B31: G392P: HAB1 mutant (protein, UniProt Q9CAJ0 23-511, looked up, variant G392P)
Protein phosphatase 2C 16: B1 Protein phosphatase 2C 16 with E363W, G370P
B32: G392N: HAB1 mutant (protein, UniProt Q9CAJ0 23-511, looked up, variant G392N)
Protein phosphatase 2C 16: B1 Protein phosphatase 2C 16 with E363W, G370N
B33: R389V: HAB1 mutant (protein, UniProt Q9CAJ0 23-511, looked up, variant R389V)
Protein phosphatase 2C 16: B1 Protein phosphatase 2C 16 with E363W, R367V
B34: R389W: HAB1 mutant (protein, UniProt Q9CAJ0 23-511, looked up, variant R389W)
Protein phosphatase 2C 16: B1 Protein phosphatase 2C 16 with E363W, R367W
B35: F391E: HAB1 mutant (protein, UniProt Q9CAJ0 23-511, looked up, variant F391E)
Protein phosphatase 2C 16: B1 Protein phosphatase 2C 16 with E363W, F369E

Molecular target: T1, PYR1 (Arabidopsis thaliana, UniProt O49686)
T1 construct: expressed in transfected cells; host or cells: S. cerevisiae strain Y190
T1 sequence (O49686 1-191): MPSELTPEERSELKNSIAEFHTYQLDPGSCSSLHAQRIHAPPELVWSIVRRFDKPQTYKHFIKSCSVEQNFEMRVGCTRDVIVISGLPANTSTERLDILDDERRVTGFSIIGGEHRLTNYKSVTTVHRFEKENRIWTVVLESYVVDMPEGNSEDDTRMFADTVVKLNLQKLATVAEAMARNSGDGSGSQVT
Assay: Yeast two hybrid of pACT-HAB1 site saturation mutants with pBD-PYR1 on 10 μM ABA, β-galactosidase staining
Format: cell-based
Design: key: x: Mutations in HAB1 that disrupt HAB1 interaction with PYR1
Conditions: S. cerevisiae Y190, 10 μM ABA; dead = lack of detectable staining in comparison to wild type control
Text: To systematically define mutations in HAB1 that disrupt its binding to PYR1, we used site saturation mutagenesis to create a collection all possible single amino acid substitutions in 20 residues lining the PYR1 binding interface, and then assayed the ability of each mutant to bind PYR1 using the yeast two hybrid assay described above. We targeted the following residues for mutagenesis: R199, 5200, E201, E203, H245, G246, G247, S322, E323, T324, K381, I383, Q384, W385, Q386, R389, F391, G392, V393, and Y404. To create the collection of mutations, mutagenic “NNK” site directed mutagenesis primers were synthesized for each of the 20 positions and the primers used in QuickChange site-directed mutagenesis reactions using a previously described pACT-HAB1 template (Park et al., 2009). We note that this clone uses a HAB1 cDNA lacking its three N-terminal amino acids. The reaction products were digested with DpnI, and transformed into competent Escherichia coli DH5α cells and plasmid DNA for 96 colonies per site was isolated using Bioneer AccuPrep® Plasmid Mini Extraction Kit (Alameda, Calif.) and sequenced to identify mutants. This process identified most of the 19 desired mutations per target site; the remaining mutations were constructed directly using specific mutagenic primers. To interrogate the effects of the mutations on PYR1-HAB1 interactions, the mutant clones were individually transformed into S. cerevisiae strain Y190 containing pBD-PYR1 (Park et al., 2009). Yeast transformants were selected for the presence of plasmids on selective SD (-Leu,-Trp) plates and then spotted onto SD (-Leu,-Trp) agar plates supplemented with 10 μM ABA. After incubating the test plates at 30° C. for two days, the colonies were lysed with chloroform and stained to reveal […] expression levels. “Dead” mutants were defined by lack of detectable staining in comparison to a wild type pBD-PYR1/pACT-HAB1 control. This screening effort defined 163 mutations that disrupt the ABA-induced PYR1/HAB1 interaction (Table 2).

Molecule | Mutations in HAB1 that disrupt HAB1 interaction with PYR1
B1 | x
B2 | x
B3 | x
B4 | x
B5 | x
B6 | x
B7 | x
B8 | x
B9 | x
B10 | x
B11 | x
B12 | x
B13 | x
B14 | x
B15 | x
B16 | x
B17 | x
B18 | x

Molecule | Mutations in HAB1 that disrupt HAB1 interaction with PYR1
B19 | x
B20 | x
B21 | x
B22 | x
B23 | x
B24 | x
B25 | x
B26 | x
B27 | x
B28 | x
B29 | x
B30 | x
B31 | x
B32 | x
B33 | x
B34 | x
B35 | x
